# Measurements as given in the supplement of paper PMC10567573.
# ± gives the standard deviation.
# Assay: protein stability index of a GFP-peptide fusion (GPS, HEK-293T) (PSI 1-6); higher = more stable
# Conditions: c terminus: a fixed tail appended
# 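Further: 24-mer peptide tiles fused after GFP, lentivirally expressed, FACS-sorted into six equal bins by GFP/DsRed ratio, decoded by Illumina sequencing, PSI is the read-weighted mean bin number.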
Sequence,protein stability index (treatment: DMSO),"protein stability index (treatment: MLN4924 1 uM, 8 h)"
LPNKQVLGLSKLARIVEIYSRRLQ [GCH1],2.31 ± 0.5,2.08 ± 0.53
LPPCLLPLSPPTAPDRATAVATAS [TRIB3],4.45 ± 0.31,4.35 ± 0.26
LPPPPPPSRGGNQLPRPPIVGGNK [WAS],5.11 ± 0.6,5.01 ± 0.33
LPSERLDFSMAEALNQEFLATRSN [PRPH],4.24 ± 0.17,4.3 ± 0.2
LPSVFGSLRDSGYFYDPIERDIEI [RSPH3],2.31 ± 0.37,2.64 ± 0.61
LQAELAAQEALREKAAALERQLKV [LRRC45],4.18 ± 0.094,4.25 ± 0.29
LQASDRYRDLAGGTGRSAKEQVLR [FCHSD1],4.18 ± 0.24,4.29 ± 0.11
LQEPGEPQGPPASPSCPEEALAAT [PXN],5.44 ± 0.22,5.278 ± 0.023
LQISEELLSRNQLSTAASLGPSGL [LCOR],3.5 ± 0.14,3.35 ± 0.41
LQLKETLATQEPTDNQVRLRKRKE [DLC1],5.18 ± 0.3,5.32 ± 0.24
LQSLRPHDEDIKTTNVKSASRQKT [ZNF396],5.14 ± 0.089,5.04 ± 0.28
LREIVHKPGPITLTVAKCWDPSPR [DVL3],2.8 ± 0.28,2.93 ± 0.32
LRFCHNNKKAKRYLLHGLECVVAM [EIF5],2.14 ± 0.33,2.23 ± 0.6
LRIPFPRDCGEEMQNGAGASRTST [TNXB],4.02 ± 0.45,4.28 ± 0.79
LRLEGLLCDVTLMPGDTDDAFPVH [KLHL13],2.42 ± 0.24,2.48 ± 0.35
LRRVLDELTLARTDLEMQIEGLKE [KRT16],2.9 ± 0.52,3.07 ± 0.14
LRSPRKFGVAGRSCQEVLRKGCLR [DFFB],2.9 ± 0.19,2.74 ± 0.35
LRVMTTNIRSARGNNPNGREAKMI [ELOA2],3.25 ± 0.18,3.49 ± 0.26
LSFSDALLSIIATVMILPVTHTEI [TMEM175],3.15 ± 0.29,2.88 ± 0.58
LSILRHQNLLKELQDLALQGAKER [CHGA],3.02 ± 0.087,3.08 ± 0.27
LSIRCQHQEQVEDLTASHDAALLE [MTUS2],4.66 ± 0.22,4.86 ± 0.19
LSLHVKSLGASPTVAGIVGSSYGI [MFSD9],2.71 ± 0.93,2.42 ± 0.38
LSLLGKLTISAAFNIVYIYTSELY [SLC22A15],3.31 ± 0.21,3.25 ± 0.28

Sequence,protein stability index (treatment: DMSO),"protein stability index (treatment: MLN4924 1 uM, 8 h)"
LSPEPPVYSLQDFDTLATVGTGTF [PRKX],3.64 ± 0.21,3.59 ± 0.31
LSVLQIAQQDLAPDPDAWLRALGE [FANCE],2.81 ± 0.39,2.75 ± 0.3
LTFAKSSWARQESLQERKQALYEY [AUP1],2.78 ± 0.43,2.67 ± 0.39
LTQKRSQLVKKLNDSDHQSSTSPL [VPS39],4.8 ± 0.23,4.69 ± 0.29
LVENIIDIYKQECSSRPLQKGSHP [TRIM63],2.36 ± 0.17,2.56 ± 0.13
LVLLIIIGIPLFFLELAVGQRIRR [SLC6A17],3.2 ± 0.25,3.2 ± 0.5
LVVLVVAVVASSVNSYYSSPAQQV [TOR1AIP2],3.22 ± 0.11,3.21 ± 0.23
LVWIRGPGFGCKAVRCASGRCTVR [SDE2],2.37 ± 0.87,2.36 ± 0.42
LYAFFTRTHGDMHSLVRSRHRIPE [TRIB3],2.18 ± 0.046,2.26 ± 0.45
LYQTELVENECYQVFLDRINRADY [TOR1AIP2],2.45 ± 0.27,2.71 ± 0.15
LYSLTLYGLRGPHKADSIQGTART [TNXB],2.11 ± 0.21,2.48 ± 0.3
LYYQSQELPNGSVKEAPAPTPTSL [PDZK1],3.87 ± 0.27,3.93 ± 0.19
MAAEIHSRPQSSRPVLLSKIEGHQ [WDFY1],3.84 ± 0.13,3.88 ± 0.23
MAAMETETAPLTLESLPTDPLLLI [FBXO3],3.44 ± 0.25,3.43 ± 0.18
MACPYSVLISGDIKDRLKKKEDCL [FAM98B],2.87 ± 0.071,3.49 ± 0.38
MAGAPDERRRGPAAGEQLQQQHVS [ATP23],5.058 ± 0.01,4.57 ± 0.25
MAGLSKEPNTLRAPRVRTAFTMEQ [VENTX],3.54 ± 0.28,3.75 ± 0.22
MAQYKGAASEAGRAMHLMKKREKQ [FAM50A],4.7 ± 0.34,4.47 ± 0.4
MDADEGQDMSQVSGKESPPVSDTP [IKZF1],5.35 ± 0.28,5.28 ± 0.6
MDDDFGVVKEEISDDNAKLPCFNG [DVL3],5.18 ± 0.19,5.21 ± 0.15
MEALKLQPGLSFLNLGSGTGYLST [PCMTD1],2.3 ± 0.2,2.31 ± 0.22
MEEMEEELKCPVCGSFYREPIILP [TRIM9],4.05 ± 0.35,4.38 ± 0.28
